Experimental data reported in the supplement of paper PMC9170038.

How the values were obtained:
[1] = test system: MS2 coat protein; assay: apparent KD of MS2 coat protein, switch ON state; designed switch direction (-1 OFF switch, 1 ON switch): 1; higher = weaker reporter binding; conditions: FMN input: 0 or 200 uM; Eterna round: R93 (includes R88 designs)
Method in brief: (§1)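 Binding of SNAP-549-labelled MS2 coat protein was measured on designed RNA switches transcribed on-chip from Illumina sequencing clusters. The protein rose in twofold steps from 0.7 or 1.5 nM to 3 µM, with 0.8–1.5 h per step early on and 10–20 min per step later, in 100 mM Tris-HCl pH 7.5, 80 mM KCl, 4 mM MgCl2, without or with constant ligand. Each design's apparent KD is the median of fits to its normalised cluster binding curves.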

[2] = test system: MS2 coat protein; assay: apparent KD of MS2 coat protein, switch OFF state (with FMN for OFF switches, without FMN for ON switches); designed switch direction (-1 OFF switch, 1 ON switch): 1; higher = weaker reporter binding; conditions: FMN input: 0 or 200 uM; Eterna round: R93 (includes R88 designs)
Method in brief: as §1

## GAAAAACAUGAGGAUCACCCAUGUGACAACAUGGGAGGAUAUACGUGGACGAUAGUCAAAGUAGAAGGCCUAAAAG [Garnet 64]
[1]
  apparent KD of MS2 coat protein: 71.7 nM
[2]
  apparent KD of MS2 coat protein: 18.4 nM

## GAACCACAUGAGGAUCACCCAUGUCUAAGAAAUUAAGGAUAUGCACAAAAGGAAAUAACUGCAGAAGGUAAACGAA [Redo]
[1]
  apparent KD of MS2 coat protein: 25.1 nM
[2]
  apparent KD of MS2 coat protein: 33.1 nM

## GAGGACAUAGUACAGGAUAUAUGAAUAGUUACAUGAGGAUCACCCAUGUGCAUUUAUAUGCGCACAUAGAAGGGUGGUAGUUAUC [SameState2 Malc#29]
[1]
  apparent KD of MS2 coat protein: 38.8 nM
[2]
  apparent KD of MS2 coat protein: 33.5 nM

## GAUAAACAUGAGGAUCACCCAUGUAGAAAUAUGGGAGGAUAUACAAAGACGAAAGUCAAAGUAGAAGGCCUAAAAG [77%, Mat - Mod of Eli - With 1 more U's]
[1]
  apparent KD of MS2 coat protein: 24.4 nM
[2]
  apparent KD of MS2 coat protein: 55.5 nM

## GCACCACAUGAGGAUCACCCAUGUAAAACGUAGCAAGGAUAUGGGCACGGAUAAUUCCGAUCAGAAGGUGUAACGC [Gemaditera]
[1]
  apparent KD of MS2 coat protein: 105 nM
[2]
  apparent KD of MS2 coat protein: 35.2 nM

## GGAAAUAACAGAGAGGAUAUCCAAAGGAAAACAUGAGGAUCACCCAUGUAAAAGGAAGGAAAUUGGGAGAAGGCUCAAAAUAGAA [salish99-ss2-019]
[1]
  apparent KD of MS2 coat protein: 15.1 nM
[2]
  apparent KD of MS2 coat protein: 26.7 nM

## GGAGCUCCAGCGCAGGAUAUCGACCCAGGGACAUGAGGAUCACCCAUGUUCCAAAAAAAAUGGGUCGAGAAGGGCGUUGGAGAGCC [SAmeState2-III]
[1]
  apparent KD of MS2 coat protein: 11 nM
[2]
  apparent KD of MS2 coat protein: 12.2 nM

## GGGAAGAACAGAGAGGAUAUCCAAAGGAAAACAUGAGGAUCACCCAUGUAAAAGGAAGGAAAUUGGGAGAAGGCUCAAAAGAGAA [salish99-ss2-023]
[1]
  apparent KD of MS2 coat protein: 32.5 nM
[2]
  apparent KD of MS2 coat protein: 36.4 nM

## GGGAGACAUGAGGAUCACCCAUGUGAAAACGUGUCAGGAUAUGUAUGGAAACCAUACUGUACAGAAGGGACUUGUC [Quintus Rammius Martialis]
[1]
  apparent KD of MS2 coat protein: 54.8 nM
[2]
  apparent KD of MS2 coat protein: 89.2 nM

## GGGAGACAUGAGGAUCACCCAUGUGAGAAGAGGCGAGGAUAUCGAAAAAAAAAAAAAAAACGAGAAGGCGCGAGAA [salish99-SS1-003]
[1]
  apparent KD of MS2 coat protein: 23.3 nM
[2]
  apparent KD of MS2 coat protein: 38 nM

## GGGAGACAUGAGGAUCACCCAUGUGAGAAGAGGCGAGGAUAUCGAAAGAAAGAAGAGAAACGAGAAGGCGCGAGAC [salish99-SS1-061]
[1]
  apparent KD of MS2 coat protein: 30.4 nM
[2]
  apparent KD of MS2 coat protein: 45.1 nM

## GGGAGGAAGAGAGAGGAUAUCCAAAGGAAAACAUGAGGAUCACCCAUGUAAAAGGUAGGAAAUUGGGAGAAGGCUCAAAAGAGGC [salish99-ss2-042]
[1]
  apparent KD of MS2 coat protein: 19.4 nM
[2]
  apparent KD of MS2 coat protein: 46.6 nM

## GGGAGGAAGAGAGAGGAUAUCCAAAGGAAAACAUGAGGAUCACCCAUGUAAAAGGUAGGAAAUUGGGAGAAGGCUCAAGAGAAGG [salish99-ss2-050]
[1]
  apparent KD of MS2 coat protein: 18.2 nM
[2]
  apparent KD of MS2 coat protein: 26.6 nM

## GUGAGGAAGAGAGAGGAUAUCCAAAGGAAAACAUGAGGAUCACCCAUGUAAAAGGUAGGAAAUUGGGAGAAGGCUCAAGAGAGAG [salish99-ss2-067]
[1]
  apparent KD of MS2 coat protein: 40.2 nM
[2]
  apparent KD of MS2 coat protein: 34.7 nM

## UAAAAACAUGAGGAUCACCCAUGUAGAAACAUGGGAGGAUAUACAAAGACGAAAGUCAAAGUAGAAGGCCUAAAAU [Mat - Same State 1 - Mod - D169]
[1]
  apparent KD of MS2 coat protein: 51.4 nM
[2]
  apparent KD of MS2 coat protein: 43.4 nM

## UAACAACAUGAGGAUCACCCAUGUCAAAUAAAUCGAGGAUAUGGGACGCAAGACGUCUUACCAGAAGGCGAAACAA [Leoratin]
[1]
  apparent KD of MS2 coat protein: 25.1 nM
[2]
  apparent KD of MS2 coat protein: 70.9 nM

## UAACUACAUGAGGAUCACCCAUGUCAAAUAAAUCGAGGAUAUGGGACGCAAAACGUCUGACCAGAAGGCGAAACAA [Maquriceri]
[1]
  apparent KD of MS2 coat protein: 27.3 nM
[2]
  apparent KD of MS2 coat protein: 132 nM

## UAAUAAUAAACCAAGGAUAUGGAGUUUCCAACAUGAGGAUCACCCAUGUUUAGCAUGAAAUCGAUCCAGAAGGUGGAGCCAAAUA [JR_SS002_Sub1005]
[1]
  apparent KD of MS2 coat protein: 54.1 nM
[2]
  apparent KD of MS2 coat protein: 102 nM

## UACAGACAUGAGGAUCACCCAUGUAGAAUUAUGGGAGGAUAUACAAAGACGAGAGUCAGAGUAGAAGGCCUAGGAU [salish99-ss1-164]
[1]
  apparent KD of MS2 coat protein: 23.5 nM
[2]
  apparent KD of MS2 coat protein: 61.3 nM

## UAGAGGAAGAGAGAGGAUAUCCAAAGGAAAACAUGAGGAUCACCCAUGUAAAAGGUAGGAAAUUGGGAGAAGGCUCAAGAGAGAG [salish99-ss2-062]
[1]
  apparent KD of MS2 coat protein: 30.9 nM
[2]
  apparent KD of MS2 coat protein: 30.3 nM
